PMC3981467

Details: phosphorylation at S183

Substance: p27/Kip1: S183A
- other: no change
